Molecular target: T1, UvrY-His6 (Escherichia coli O157:H7 (EHEC; EDL933?)) (UniProt P66798)
T1 sequence: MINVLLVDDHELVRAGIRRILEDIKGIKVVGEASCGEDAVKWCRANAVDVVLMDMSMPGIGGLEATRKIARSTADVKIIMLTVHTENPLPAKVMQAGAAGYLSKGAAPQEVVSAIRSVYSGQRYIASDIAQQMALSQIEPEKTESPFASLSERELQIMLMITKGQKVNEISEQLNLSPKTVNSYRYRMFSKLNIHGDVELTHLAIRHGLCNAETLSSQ
Assay: EMSA

Sequence | binding
AGATTCATCTGCAGGCTCTGAAGTAAGTATACGTGTGAATATTATTGCTTGAAAAAGCGTATTGGATAATATATACAGTATATGTACTTTATGTACATTGCAACTATTTAAATAATATAATAGTTGCCTATGGGATAATTTGGTTATTTATAACCAGGTAAATGTCTAAATTAGACAAAAGGAGAAAGATCAATGGAAGCAGCAAATTTAAGTCCTTCTGGTGCAGTAATG (double strand) [PLEE2/3] | no binding
CATTAGCCATTGGAAACTCACGTAATCATTAATTATGAATATTCCATTAAATAGTACTGTACAACAGCTTCCTTTCTACTCTATTCTTAGACGATGTAAGTTCACCATATTTTTTCTCATTGTTCAACCACCAGGATGAATAAAATTTAAAAATGTTATCCTCATATAAAATAAAACTTCTCAATGGTGCGATGCG (double strand) [PLEE4] | no binding
GGGTGCTACTTTACGCCTTTGCTTTAAACAAACAATCAACCGCCATCAGTATTTGCACATTTTCAGAGTTTTATATAAAAGCAATTAACTGATTTATATAGCTTATTTGACATGCATCGCAGAATTTTCTCTGCTATTTCGCATAAAGACTATCGGCAATGTCTCACAAAGCGTATGGCTTTTACTTACAACGCTCACGCCGAAAAATCCGCCTTTTATTATGGTTCAGGTATAATCGCCGCAAAGCTTTGACTGACGGAGACGACCGCTT (double strand) [PcsrC] | binds
GTTATCGCAGGGAGCCACACAGCGTGTGTTGGACGCGACTCAGCTTTACCTTGGTGAGATTGGTTATTCACCACTGTTAACGGCCGAAGAAGAAGTTTATTTTGCGCGTCGCGCACTGCGTGGAGATGTCGCCTCTCGCCGCCGGATGATCGAGAGTAACTTGCGTCTGGTGGTAAAA (double strand) [rpoS coding region] | no binding

Source: PMC9916836
